Experimental data published in patent publication US20260184782A1 (TWIST BIOSCIENCE, published 2026).
Substitutions are numbered along the chain they refer to.

T1: recombinant human TIGIT (human, UniProt Q495A1 22-141, limits assumed)
T1 construct: recombinant human TIGIT used in Carterra SPR; also called hTIGIT
T1 sequence (looked up): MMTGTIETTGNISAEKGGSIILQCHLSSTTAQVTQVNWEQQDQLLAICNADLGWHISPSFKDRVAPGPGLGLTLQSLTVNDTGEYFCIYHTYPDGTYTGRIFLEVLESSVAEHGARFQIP

B1: TIGIT-SC28 (Fc fusion)
VHH: EVQLVESGGGLVQPGGSLRLSCAASGRTFSTDAMGWFRQAPGKEREFVATINWKDGFTYYADSVKGRFTISADNSKNTAYLQMNSLKPEDTAVYYCAGVGHDYGDYLFDYWGQGTLVTVSS
notes: VHH-Fc fusion in assay
B2: TIGIT-SC89 (Fc fusion)
VHH: EVQLVESGGGLVQPGGSLRLSCAASGSMSSINAMGWFRQAPGKEREFVAAINYEGDRTYYADSVKGRFTISADNSKNTAYLQMNSLKPEDTAVYYCARWTRGLVSGTYYYYMDVWGQGTLVTVSS
notes: VHH-Fc fusion in assay
B3: TIGIT-SC90 (Fc fusion)
VHH: EVQLVESGGGLVQPGGSLRLSCAASGDTFSSKAMGWFRQAPGKEREFVAAIRWSVSSTYYADSVKGRFTISADNSKNTAYLQMNSLKPEDTAVYYCARWTRGLVSGTYYYYMDVWGQGTLVTVSS
notes: VHH-Fc fusion in assay
B4: TIGIT-SC56 (Fc fusion)
VHH: EVQLVESGGGLVQPGGSLRLSCAASGNTFSGGFMGWFRQAPGKEREWVASVLRGGYTWYADSVKGRFTISADNSKNTAYLQMNSLKPEDTAVYYCAHSKGYNWFDPWGQGTLVTVSS
notes: VHH-Fc fusion in assay
B5: TIGIT-SC154 (Fc fusion)
VHH: EVQLVESGGGLVQPGGSLRLSCAASGFAFSSDWMGWFRQAPGKEREWVASVLRGGYTWYADSVKGRFTISADNSKNTAYLQMNSLKPEDTAVYYCAGDYRGFEMAFDPWGQGTLVTVSS
notes: VHH-Fc fusion in assay
B6: TIGIT-SC167 (Fc fusion)
VHH: EVQLVESGGGLVQPGGSLRLSCAASGRTFSFMGWFRQAPGKEREWVASVLRGGYTWYADSVKGRFTISADNSKNTAYLQMNSLKPEDTAVYYCAREGSGYASDYWGQGTLVTVSS
notes: VHH-Fc fusion in assay
B7: TIGIT-SC185 (Fc fusion)
VHH: EVQLVESGGGLVQPGGSLRLSCAASGRTFSFMGWFRQAPGKEREWVASVLRGGYTWYADSVKGRFTISADNSKNTAYLQMNSLKPEDTAVYYCTTDRGYNWNYDWGQGTLVTVSS
notes: VHH-Fc fusion in assay
B8: TIGIT-SC180 (Fc fusion)
VHH: EVQLVESGGGLVQPGGSLRLSCAASGFTLNDYAMGWFRQAPGKERELVAWIARYDGSTLYADSVKGRFTISADNSKNTAYLQMNSLKPEDTAVYYCASEVASGETDYWGQGTLVTVSS
notes: VHH-Fc fusion in assay
B9: TIGIT-SC73 (Fc fusion)
VHH: EVQLVESGGGLVQPGGSLRLSCAASGSSFSLADYAMGWFRQAPGKEREFVAAISYNVGTTYYADSVKGRFTISADNSKNTAYLQMNSLKPEDTAVYYCARWSAKRHSDTMTYYMDVWGQGTLVTVSS
notes: VHH-Fc fusion in assay
B10: TIGIT-SC64 (Fc fusion)
VHH: EVQLVESGGGLVQPGGSLRLSCAASGFAFSNFGMGWFRQAPGKERELVSAIGWSGASTYYADSVKGRFTISADNSKNTAYLQMNSLKPEDTAVYYCARRGRTIPFDYWGQGTLVTVSS
notes: VHH-Fc fusion in assay
B11: TIGIT-SC87 (Fc fusion)
VHH: EVQLVESGGGLVQPGGSLRLSCAASGSIDTINTMGWFRQAPGKEREFVAAITPSSRTTYYVDSVKGRFTISADNSKNTAYLQMNSLKPEDTAVYYCARWGGVTFGGVYPLEYWGQGTLVTVSS
notes: VHH-Fc fusion in assay
B12: TIGIT-SC147 (Fc fusion)
VHH: EVQLVESGGGLVQPGGSLRLSCAASGTITSAVFMGWFRQAPGKEREFVAAVIWRGGSLKSYADSVKGRFTISADNSKNTAYLQMNSLKPEDTAVYYCAKLAVAGNYYYYGMDVWGQGTLVTVSS
notes: VHH-Fc fusion in assay
B13: TIGIT-SC102 (Fc fusion)
VHH: EVQLVESGGGLVQPGGSLRLSCAASGSTFSKHHAMGWFRQAPGKEREFVAAIRWSGGNTYYADSVKGRFTISADNSKNTAYLQMNSLKPEDTAVYYCARWYSSSGDYYYMDVWGQGTLVTVSS
notes: VHH-Fc fusion in assay
B14: TIGIT-SC2 (Fc fusion)
VHH: EVQLVESGGGLVQPGGSLRLSCAASGFTLSSNWMGWFRQAPGKEREMVAAIDWSGGSALYADSVKGRFTISADNSKNTAYLQMNSLKPEDTAVYYCAKDALSNSARFDHWGQGTLVTVSS
notes: VHH-Fc fusion in assay
B15: TIGIT-SC125 (Fc fusion)
VHH: B14 VHH with S31G
notes: VHH-Fc fusion in assay
B16: TIGIT-SC124 (Fc fusion)
VHH: B14 VHH with F27S, T28I, L29F
notes: VHH-Fc fusion in assay
B17: TIGIT-SC12 (Fc fusion)
VHH: EVQLVESGGGLVQPGGSLRLSCAASGRTFSAYGMGWFRQAPGKEREFVAAITPSSRTTYYADSVKGRFTISADNSKNTAYLQMNSLKPEDTAVYYCAKDNWGEWLMPWWGQGTLVTVSS
notes: VHH-Fc fusion in assay
B18: TIGIT-SC136 (Fc fusion)
VHH: EVQLVESGGGLVQPGGSLRLSCAASGFTLENNMMGWFRQAPGKEREFVAAISRSGTLKAYADSVKGRFTISADNSKNTAYLQMNSLKPEDTAVYYCARGGELTTFYFGYWGQGTLVTVSS
notes: VHH-Fc fusion in assay
B19: TIGIT-SC150 (Fc fusion)
VHH: EVQLVESGGGLVQPGGSLRLSCAASGFTLENNMMGWFRQAPGKEREFVAAISRSGTLKAYADSVKGRFTISADNSKNTAYLQVNSLKPEDTAVYYCVRVRGYSGYDCDYWGQGTLVTVSS
notes: VHH-Fc fusion in assay
B20: TIGIT-SC41 (Fc fusion)
VHH: EVQLVESGGGLVQPGGSLRLSCAASGMTTIGPMGWFRQAPGKEREFVASIAWGDGNTYYADSVKGRFTISADNSKNTAYLQMNSLKPEDTAVYYCVRGGSRTLWGQGTLVTVSS
notes: VHH-Fc fusion in assay
B21: TIGIT-SC127 (Fc fusion)
VHH: EVQLVESGGGLVQPGGSLRLSCAASGSIFSGNAMGWFRQAPGKERELVAAISNSASSTVYADSVKGRFTISADNSKNTAYLQMNSLKPEDTAVYYCARDWNLFDYWGQGTLVTVSS
notes: VHH-Fc fusion in assay
B22: TIGIT-SC80 (Fc fusion)
VHH: EVQLVESGGGLVQPGGSLRLSCAASGNIPPINAMGWFRQAPGKEREFVAAINYSGGSTYYADSVKGRFTISADNSKNTAYLQMNSLKPEDTAVYYCARWHYDILTGYYWLDSWGQGTLVTVSS
notes: VHH-Fc fusion in assay
B23: TIGIT-SC99 (Fc fusion)
VHH: EVQLVESGGGLVQPGGSLRLSCAASGSIFSMNTMGWFRQAPGKEREFVGAINWSGGSTIYADSVKGRFTISADNSKNTAYLQMNSLKPEDTAVYYCARWDYDILTNYYWLEYWGQGTLVTVSS
notes: VHH-Fc fusion in assay
B24: TIGIT-SC79 (Fc fusion)
VHH: B22 VHH with N27S, P29L, P30S, A33T, N52T, Y53S, S54A, S57T
notes: VHH-Fc fusion in assay
B25: TIGIT-SC119 (Fc fusion)
VHH: EVQLVESGGGLVQPGGSLRLSCAASGNTFSGGFMGWFRQAPGKEREWVASVLRGGYTWYADSVKGRFTISADNSKNTAYLQMNSLKPEDTAVYYCAKDGGWFDPWGQGTLVTVSS
notes: VHH-Fc fusion in assay
B26: TIGIT-SC17 (Fc fusion)
VHH: B25 VHH with N27F, T28D, G31V, G32S, F33W, K97R, D98E, G100S, P104Y
notes: VHH-Fc fusion in assay
B27: TIGIT-SC189 (Fc fusion)
VHH: B25 VHH with A96V, K97T, G99V, W101A, F102P, P104Y
notes: VHH-Fc fusion in assay
B28: TIGIT-SC37 (Fc fusion)
VHH: B25 VHH with A96V, K97F, D98G, G100V, F102Q, P104V
notes: VHH-Fc fusion in assay
B29: TIGIT-SC120 (Fc fusion)
VHH: B25 VHH with N27F, G31P, G32S, F33W
notes: VHH-Fc fusion in assay
B30: TIGIT-SC190 (Fc fusion)
VHH: EVQLVESGGGLVQPGGSLRLSCAASGFTFDRSWMGWFRQAPGKEREWVASVLRGGYTWYADSVKGRFTISADNSKNTAYLQMNSLKPEDTAVYYCVTDVGAPDYWGQGTLVTVSS
notes: VHH-Fc fusion in assay
B31: TIGIT-SC165 (Fc fusion)
VHH: B25 VHH with A96T, K97T, D98E, G100S, W101G, F102W, D103R, P104N
notes: VHH-Fc fusion in assay

Molecular target: T1, recombinant human TIGIT
Assay: SPR Carterra, average
Method: Binding affinities of VHH-Fc proteins to recombinant human TIGIT were measured by SPR using a Carterra instrument (Table 10A). […] Average values reported from measurements from 1-2 samples.

| Binder | Kd [nM] | koff [s⁻¹] | kon [M⁻¹ s⁻¹] |
| --- | --- | --- | --- |
| B1 | 23.9 | 0.00179 | 75100 |
| B2 | 30.8 | 0.00294 | 106000 |
| B3 | 59.5 | 0.00301 | 50500 |
| B4 | 26.9 | 0.000801 | 29800 |
| B5 | 22.5 | 0.00219 | 130000 |
| B6 | 21.3 | 0.00349 | 164000 |
| B7 | 80.3 | 0.00621 | 141000 |
| B8 | 21.7 | 0.0101 | 465000 |
| B9 | 21.8 | 0.00276 | 126000 |
| B10 | 19.6 | 0.00343 | 207000 |
| B11 | 28.7 | 0.00564 | 196000 |
| B12 | 24 | 0.0115 | 383000 |
| B13 | 33.5 | 0.00146 | 43500 |
| B14 | 22.1 | 0.00274 | 124000 |
| B15 | 61.3 | 0.00807 | 142000 |
| B16 | 51 | 0.00531 | 105000 |

| Binder | Kd [nM] | koff [s⁻¹] | kon [M⁻¹ s⁻¹] |
| --- | --- | --- | --- |
| B17 | 22.8 | 0.0049 | 221000 |
| B18 | 20.4 | 0.00254 | 209000 |
| B19 | 99.8 | 0.0212 | 212000 |
| B20 | 19.2 | 0.0118 | 631000 |
| B21 | 32.8 | 0.0164 | 501000 |
| B22 | 28.3 | 0.00179 | 63200 |
| B23 | 52.4 | 0.00428 | 81600 |
| B24 | 56 | 0.00445 | 79500 |
| B25 | 19.7 | 0.00367 | 196000 |
| B26 | 47.9 | 0.00149 | 31200 |
| B27 | 883 | 0.00528 | 8880 |
| B28 | 23.7 | 0.00507 | 214000 |
| B29 | 66.1 | 0.00478 | 67600 |
| B30 | 24.3 | 0.0015 | 78400 |
| B31 | 62.5 | 0.00484 | 93300 |
